# Substitutions are numbered along the chain they refer to. Primed or numbered codes have the meaning given here. Biotin′ = not defined here
# T1: LRRC25(21-40) biotin peptide (human, not fully specified; N-terminal NH2; C-terminal GGK-Biotin; native Cys changed to Ser)
# T1 peptide: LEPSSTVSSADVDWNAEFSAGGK
# T2: LRRC25(36-55) biotin peptide (human, not fully specified; N-terminal NH2; C-terminal GGK-Biotin; native Cys changed to Ser)
# T2 peptide: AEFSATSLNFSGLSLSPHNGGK
# T3: LRRC25(51-69) biotin peptide (human, not fully specified; N-terminal acetyl; C-terminal GGK-Biotin)
# T3 peptide: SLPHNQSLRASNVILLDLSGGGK
# T4: LRRC25(66-85) biotin peptide (human, not fully specified; N-terminal acetyl; C-terminal GGK-Biotin)
# T4 peptide: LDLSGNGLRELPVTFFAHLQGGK
# T5: LRRC25(81-100) biotin peptide (human, not fully specified; N-terminal acetyl; C-terminal GGK-Biotin)
# T5 peptide: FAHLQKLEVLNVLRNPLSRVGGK
# T6: LRRC25(96-115) biotin peptide (human, not fully specified; N-terminal acetyl; C-terminal GGK-Biotin; native Cys changed to Ser)
# T6 construct: also called Biotin LRRC25 (96-115) peptide
# T6 peptide: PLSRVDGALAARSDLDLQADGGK
# T7: LRRC25(111-130) biotin peptide (human, not fully specified; N-terminal acetyl; C-terminal GGK-Biotin; native Cys changed to Ser)
# T7 peptide: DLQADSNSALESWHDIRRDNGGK
# T8: LRRC25(126-145) biotin peptide (human, not fully specified; N-terminal acetyl; C-terminal GGK-Biotin; native Cys changed to Ser)
# T8 peptide: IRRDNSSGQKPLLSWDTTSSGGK
# T9: LRRC25(141-159) biotin peptide (human, not fully specified; N-terminal acetyl; C-terminal GGK-Biotin; native Cys changed to Ser)
# T9 peptide: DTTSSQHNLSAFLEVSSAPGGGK
# T10: LRRC25(150-165) biotin peptide (human)
# T10 peptide: Ac-SAFLEVSSAPGLASATGG-{Biotin′}
# B1: anti-LRRC25 chimeric antibody 2G02 (antibody, human IgG4, V domains shown)
# VH: QVTLKESGPGILQPSQTLSLTCSFSGFSLSTSGMGVSWIRQPSGKGLEWLAHIYWDDDKRYNPSLKSRLTISKDTSSNQVFLKITSVDTADTATYYCARRHRDYDSRGHWYFGVWGAGTTVTVSS
# VL: DVVMTQTPKSMSMSVGERVTLSCKASENVGTYVSWYQQKPEQSPKLLIYGASNRYTGVPDRFTGSGSATDFTLTISSVQAEDLADYHCGQSYNYPFTFGGGTKLEIKR
# B2: anti-LRRC25 chimeric antibody 1H04 (antibody, human IgG4, V domains shown)
# VH: EVQLVESGGGLVKPGGSLKLSCAASGFTFSNSAMSWVRQTPEKRLEWVASISRGGKTYYPDSVKGRFTISRDNARNILYLQMSSLRSEDTAMYYCARGQELRLFAYWGQGTLVTVSA
# VL: DIVMTQDAFSNPVTLGTSASISCRSSKSLLHSNGITYLYWYLQKPGQSPQLLIYQMSNLASGVPDRFSSSGSGTDFTLRISRVEAEDVGVYYCAQNLELPFTFGSGTKLEIKR
# B3: anti-LRRC25 chimeric antibody 3F06 (antibody, human IgG4, V domains shown)
# VH: DVMLVESGGGLVKPGGSLKLSCAASGFTFSSYAMSWVRQTPDKRLEWVASISSSGNTYYPDTMKGRFTISRDNARNILYLQMSSLRSEDTAMYYCARGLTGTLFAYWGQGTLVTVSA
# VL: B2 VL with F9P, N11V, L15P, T17E, A19V, Y37F, Y41F, K112G
# B4: anti-LRRC25 chimeric antibody 1A03 (antibody, human IgG4, V domains shown)
# VH: B2 VH with N31S, M34V, K56N
# VL: B2 VL with D7A, F101P, S105G
# B5: anti-LRRC25 chimeric antibody 1H09 (antibody, human IgG4, V domains shown)
# VH: DVQLVESGGGLVKPGGSLKLSCAASGFTFSSYAMSWVRQTPEKRLEWVASISRGGNTYYPDSVKGRFTISRDNARNILYLQMSSLRSEDTAMYYCARGNYGNSPFAYWGQGALVTVSA
# VL: DVVMTQTPASLAVSLGQRATISCRASESVDSYGNSFMHWYQQKPGQPPKLLIYLASNLESGVPARFSGSGSRTDFTLTIDPVEADDAATYYCQQNNEDPFTFGSGTKLEIKR
# B6: anti-LRRC25 chimeric antibody 1F01 (antibody, human IgG4, V domains shown)
# VH: B5 VH with D1E, Q3K, V5E, S31N, M92T, Y94F, A96T, R97K, N102S, A112T
# VL: DIQMTQSPASLSASVGETVTITCRASENIYSYLAWYQQKQGKSPQLLVYNAKTLAEGVPSRFSGSGSGTQFSLKINSLQPEDFGSYYCQHHYGTPFTFGSGTKLEIKR
# notes: also called ATCC PTA-126025
# Target: T1, LRRC25(21-40) biotin peptide
# Experiment: peptide ELISA
# Experimental: (§1) To establish if functional chimera anti-LRRC25 antibodies recognize particular regions of LRRC25, ELISA experiments were performed using 10 plate-immobilized 16- to 20-mer overlapping LRRC25(ECD) biotin peptides (Table 7). Biotinylated human LRRC25-His served as a positive control. A typical ELISA was performed by coating overnight at 4° C., 3 ug/mL/25 ul per well of streptavidin (Jackson Immunoresearch, Cat. #016-030-084) in PBS in half-area high binding microtiter wells (Corning Cat. #3690). […] Biotin peptides or biotinylated human LRRC25-His protein were added in duplicate (2 ug/mL/25 ul per well) in assay buffer (blocking buffer containing 0.05% tween 20) and the plate incubated for 45 min at 37° C. The plate was washed as before, 20 nM anti-LRRC25 antibodies in assay buffer added in duplicate into appropriate wells, and the plate incubated as before. The plate was washed and HRP-conjugated secondary antibody in assay buffer added [25 ul per well; goat anti-human IgG (Jackson Immunoresearch, Cat. #715-035-150)], and incubated as before. Antibody bound to plate-immobilized peptide(s) or protein was determined at A450 nm using HRP substrate (3,3′,5,5′-tetramethylbenzidine (TMB); eBioscience; Cat. #00-4201-56); 100 μl/well).
row,binding result,Binder
1,no binding (tested: 20 nM),B1
2,no binding (tested: 20 nM),B2
3,no binding (tested: 20 nM),B3
4,no binding (tested: 20 nM),B4
5,no binding (tested: 20 nM),B5
6,no binding (tested: 20 nM),B6

# Target: T2, LRRC25(36-55) biotin peptide
# Experiment: peptide ELISA
# Experimental: as §1
row,binding result,Binder
1,no binding (tested: 20 nM),B1
2,no binding (tested: 20 nM),B2
3,no binding (tested: 20 nM),B3
4,no binding (tested: 20 nM),B4
5,no binding (tested: 20 nM),B5
6,no binding (tested: 20 nM),B6

# Target: T3, LRRC25(51-69) biotin peptide
# Experiment: peptide ELISA
# Experimental: as §1
row,binding result,Binder
1,no binding (tested: 20 nM),B1
2,no binding (tested: 20 nM),B2
3,no binding (tested: 20 nM),B3
4,no binding (tested: 20 nM),B4
5,no binding (tested: 20 nM),B5
6,no binding (tested: 20 nM),B6

# Target: T4, LRRC25(66-85) biotin peptide
# Experiment: peptide ELISA
# Experimental: as §1
row,binding result,Binder
1,no binding (tested: 20 nM),B1
2,no binding (tested: 20 nM),B2
3,no binding (tested: 20 nM),B3
4,no binding (tested: 20 nM),B4
5,no binding (tested: 20 nM),B5
6,no binding (tested: 20 nM),B6

# Target: T5, LRRC25(81-100) biotin peptide
# Experiment: peptide ELISA
# Experimental: as §1
row,binding result,Binder
1,no binding (tested: 20 nM),B1
2,no binding (tested: 20 nM),B2
3,no binding (tested: 20 nM),B3
4,no binding (tested: 20 nM),B4
5,no binding (tested: 20 nM),B5
6,no binding (tested: 20 nM),B6

# Target: T6, LRRC25(96-115) biotin peptide
# Experiment: peptide ELISA
# Experimental: as §1
row,binding result,Binder
1,no binding (tested: 20 nM),B1

# Target: T7, LRRC25(111-130) biotin peptide
# Experiment: peptide ELISA
# Experimental: as §1
row,binding result,Binder
1,no binding (tested: 20 nM),B1
2,no binding (tested: 20 nM),B2
3,no binding (tested: 20 nM),B3
4,no binding (tested: 20 nM),B4
5,no binding (tested: 20 nM),B5
6,no binding (tested: 20 nM),B6

# Target: T8, LRRC25(126-145) biotin peptide
# Experiment: peptide ELISA
# Experimental: as §1
row,binding result,Binder
1,no binding (tested: 20 nM),B1
2,no binding (tested: 20 nM),B2
3,no binding (tested: 20 nM),B3
4,no binding (tested: 20 nM),B4
5,no binding (tested: 20 nM),B5
6,no binding (tested: 20 nM),B6

# Target: T9, LRRC25(141-159) biotin peptide
# Experiment: peptide ELISA
# Experimental: as §1
row,binding result,Binder
1,no binding (tested: 20 nM),B1
2,no binding (tested: 20 nM),B2
3,no binding (tested: 20 nM),B3
4,no binding (tested: 20 nM),B4
5,no binding (tested: 20 nM),B5
6,no binding (tested: 20 nM),B6

# Target: T10, LRRC25(150-165) biotin peptide
# Experiment: peptide ELISA
# Experimental: as §1
row,binding result,Binder
1,no binding (tested: 20 nM),B1
2,no binding (tested: 20 nM),B2
3,no binding (tested: 20 nM),B3
4,no binding (tested: 20 nM),B4
5,no binding (tested: 20 nM),B5
6,no binding (tested: 20 nM),B6

# Target: T11, His-tagged human LRRC25 extracellular domain protein, human LRRC25-His (human, UniProt Q8N386 21-165)
# T11 construct: The entry holds the extracellular domain, a GSG linker and the His tag; also called LRRC25(ECD)-HIS
# Experiment: ELISA, plate-immobilized antigen
# Experimental: To establish the relative binding strengths of anti-LRRC25 antibodies against human LRRC25, and their cross-reactivity with cynomolgus monkey LRRC25, antibody binding curve analyses were performed and EC50 values against plate-immobilized recombinant human and cyno LRRC25 proteins were determined.
# (§2) A typical ELISA was performed by coating overnight in PBS, pH 7.4, at 4° C. in high binding microtiter wells with 1 ug/mL/100 ul per well of human LRRC25-His or cyno LRRC25-His. An anti-human LRRC25 antibody (2A3, LS Bio, LS-C174039-100) and anti-HIS-HRP (Miltenyi Biotec; 130-092-783) served as coating controls for the human and cyno LRRC25 proteins, respectively. […] Anti-LRRC25 antibodies were added (100 ul per well) at 500 nM and serially diluted 3-fold in assay buffer (1% skimmed milk in PBS, pH 7.4). The plate was incubated with gentle agitation for 1 h at room temperature. The plate was washed 3× and HRP-conjugated secondary antibody in assay buffer added [100 ul per well; goat anti-human IgG (Jackson Immunoresearch, cat #715-035-150)], and the plate was incubated as before. Antibody bound to plate-immobilized LRRC25(ECD)-HIS was determined at A450 nm using HRP substrate (3,3′,5,5′-tetramethylbenzidine (TMB); eBioscience; 00-4201-56); 100 μl/well).
# T11 sequence (Q8N386 other isoform, or with tags, fused parts or gaps): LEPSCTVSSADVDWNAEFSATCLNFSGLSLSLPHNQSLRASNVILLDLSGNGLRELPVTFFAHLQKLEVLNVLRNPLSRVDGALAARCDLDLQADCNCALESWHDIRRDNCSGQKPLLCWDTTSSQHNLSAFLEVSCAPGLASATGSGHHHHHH
row,EC50 [nM],Binder
1,0.44,B2
2,1.9,B3
3,6.4,B4
4,1.5,B5
5,8.3,B6

# Target: T12, His-tagged cynomolgus monkey LRRC25 extracellular domain protein, cyno LRRC25-His (cynomolgus monkey)
# T12 construct: The entry holds the extracellular domain, a GSG linker and the His tag
# Experiment: ELISA, plate-immobilized cyno LRRC25-His
# Experimental: as §2
# T12 sequence (chain, as listed by the source limits assumed): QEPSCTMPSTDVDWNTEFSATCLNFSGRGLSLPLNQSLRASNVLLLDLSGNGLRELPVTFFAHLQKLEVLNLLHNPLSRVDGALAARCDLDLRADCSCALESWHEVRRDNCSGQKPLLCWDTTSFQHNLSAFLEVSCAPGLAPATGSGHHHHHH
row,binding result,Binder
1,no binding (tested: 500 nM),B2
2,no binding (tested: 500 nM),B3
3,no binding (tested: 500 nM),B4
4,no binding (tested: 500 nM),B5
5,no binding (tested: 500 nM),B6

# Target: T13, biotinylated human LRRC25-His protein (human, UniProt Q8N386 21-165, biotinylated (sites not given))
# T13 construct: also called Biotin LRRC25-His; biotinylated LRRC25 protein
# Experiment: ELISA, 20 nM antibody, biotinylated antigen on streptavidin plate
# Experimental: as §1
# T13 sequence (Q8N386 other isoform, or with tags, fused parts or gaps): as the sequence (Q8N386 other isoform, or with tags, fused parts or gaps) above
row,absorbance (A450),Binder
1,2.6,B1
2,1.24,B2
3,1.23,B3
4,0.37,B4
5,0.564,B5
6,0.507,B6

# Target: T6, LRRC25(96-115) biotin peptide
# Experiment: as above
# Experimental: as §1
row,absorbance (A450),Binder
1,0.049,B1
2,2.58,B2
3,2.8,B3
4,0.478,B4
5,0.631,B5
6,0.782,B6
